± gives the uncertainty stated by the source.
Test: self-splicing fitness, log relative to wild type (ln ratio); higher = more splicing; Tetrahymena group I intron in knt gene, E. coli kanamycin selection, DiMSum; sequences stand for … in CUCUCU…GGAGGGAAAAGUUAUCAGGCAUGCACCUGGUAGCUAGUCUUUAAACCAAUAGAUUGCAUCGGUUUAAAAGGCAAGACCGUCAAAUUGCGGGAAAGGGGUCAACAGCCGUUCAGUACCAAGUCUCAGGGGAAACUUUGAGAUGGCCUUGCAAAGGGUAUGGUAAUAAGCUGACGGACAUGGUCCUAACCACGCAGCCAAGUCCUAAGUCAACAGAUCUUCUGUUGAUAUGGAUGCAGUUCACAGACUAAAUGUCGGUCGGGGAAGAUGUAUUCUUCUCAUAAGAUAUAGUCGGACCUCUCCUUAAUGGGAGCUAGCGGAUGAAGUGAUGCAACACUGGAGCCGCUGGGAACUAAUUUGUAUGCGAAAGUAUAUUGAUUAGUUUUGGAGUACUCGUGGUCG
In short: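 Colonies from six replicate transformations of E. coli BL21(DE3) were pooled and amplicon-sequenced on an Illumina HiSeq 2500. The library placed an intron with all eight P1ex-region nucleotides randomised inside the knt kanamycin-resistance gene on pET-22b(+), and cells grew overnight at 37°C or 30°C on LB agar with or without 25 μg/mL kanamycin (plus 100 μg/mL carbenicillin, 50 μM IPTG, 0.2% rhamnose). Fitness is the DiMSum error-weighted combination of wild-type-normalised replicate fold changes, kanamycin versus none.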

Row | Sequence | self-splicing fitness (ln) (30 °C) | self-splicing fitness (ln) (37 °C)
1 | CUCAAGCAAUAUUACGGGAU | -3.47 ± 0.12 | -1.34 ± 0.099
2 | CUCAAGCAAUAUUACGGUAC |  | -3.06 ± 0.37
3 | CUCAAGCAAUAUUACGUAAG | -0.417 ± 0.054 | -0.102 ± 0.086
4 | CUCAAGCAAUAUUACGUCAA | -4.09 ± 0.35 | -2.31 ± 0.19
5 | CUCAAGCAAUAUUACGUCAC | -3.4 ± 0.22 | -2.7 ± 0.21
6 | CUCAAGCAAUAUUACGUGCA | -3.43 ± 0.26 | -1.85 ± 0.19
7 | CUCCAGCAAUAUUACGACAG | -1.4 ± 0.14 | -0.3 ± 0.14
8 | CUCCAGCAAUAUUACGAGUA | -2.58 ± 0.16 | -2.14 ± 0.14
9 | CUCCAGCAAUAUUACGAUAC | -3.57 ± 0.31 | -1.94 ± 0.32
10 | CUCCAGCAAUAUUACGCACG | -1.52 ± 0.13 | -1.12 ± 0.18
11 | CUCCAGCAAUAUUACGCAGU | -3.59 ± 0.21 | -2.04 ± 0.23
12 | CUCCAGCAAUAUUACGCCAA |  | -2.07 ± 0.27
13 | CUCCAGCAAUAUUACGCGGC | -1.8 ± 0.26 | -2.08 ± 0.39
14 | CUCCAGCAAUAUUACGCUAA | -3.28 ± 0.27 | -2.62 ± 0.42
15 | CUCCAGCAAUAUUACGCUUA | -4.14 ± 0.34 | -2.49 ± 0.24
16 | CUCCAGCAAUAUUACGGAAG | -3.34 ± 0.16 | -3.14 ± 0.24
17 | CUCCAGCAAUAUUACGGACG | -0.729 ± 0.059 | -0.666 ± 0.09
18 | CUCCAGCAAUAUUACGGCUC | -2.78 ± 0.23 | -1.57 ± 0.17
19 | CUCCAGCAAUAUUACGGUAU | -4.21 ± 0.22 | -3.58 ± 0.19
20 | CUCCAGCAAUAUUACGGUGA | -2 ± 0.099 | -1.39 ± 0.11
21 | CUCCAGCAAUAUUACGUCCA | -3.35 ± 0.39 | -3.24 ± 0.33
22 | CUCCAGCAAUAUUACGUCGU | -3.07 ± 0.12 | -2.72 ± 0.18
23 | CUCCAGCAAUAUUACGUGCA | -3.43 ± 0.17 | -2.32 ± 0.13
24 | CUCCAGCAAUAUUACGUGGG | -3.29 ± 0.11 | -2.62 ± 0.14
25 | CUCCAGCAAUAUUACGUUAG | -2.15 ± 0.094 | -1.51 ± 0.12
26 | CUCCAGCAAUAUUACGUUCU | -2.89 ± 0.15 | -3.65 ± 0.46

Row | Sequence | self-splicing fitness (ln) (30 °C) | self-splicing fitness (ln) (37 °C)
27 | CUCCAGCAAUAUUACGUUUU | -3.38 ± 0.12 | -3.12 ± 0.15
28 | CUCGAGCAAUAUUACGAUAA | -2.16 ± 0.36 | -2.02 ± 0.37
29 | CUCGAGCAAUAUUACGCACU | -2.96 ± 0.3 | 
30 | CUCGAGCAAUAUUACGGACG | -2.4 ± 0.15 | -2.25 ± 0.23
31 | CUCGAGCAAUAUUACGGCGU | -1.96 ± 0.12 | -1.61 ± 0.18
32 | CUCGAGCAAUAUUACGGCUA |  | -2.32 ± 0.39
33 | CUCGAGCAAUAUUACGGGUC | -3.33 ± 0.28 | -1.77 ± 0.31
34 | CUCGAGCAAUAUUACGGUAC | -2.82 ± 0.22 | -2.84 ± 0.4
35 | CUCGAGCAAUAUUACGGUCA | -2.89 ± 0.28 | -0.817 ± 0.23
36 | CUCGAGCAAUAUUACGUAAC | -1.53 ± 0.28 | 
37 | CUCGAGCAAUAUUACGUAAU |  | -1.42 ± 0.29
38 | CUCGAGCAAUAUUACGUCAA | -3.49 ± 0.3 | -1.81 ± 0.26
39 | CUCGAGCAAUAUUACGUGCC | -3.35 ± 0.35 | 
40 | CUCGAGCAAUAUUACGUGGA | -2.89 ± 0.27 | -1.88 ± 0.16
41 | CUCGAGCAAUAUUACGUUCA | -3.47 ± 0.35 | 
42 | CUCGAGCAAUAUUACGUUCG |  | -3.15 ± 0.47
43 | CUCUAGCAAUAUUACGAAAA |  | -1.12 ± 0.2
44 | CUCUAGCAAUAUUACGAACG | -0.887 ± 0.097 | -0.112 ± 0.11
45 | CUCUAGCAAUAUUACGAAGA |  | -2.75 ± 0.26
46 | CUCUAGCAAUAUUACGAAUG | -1.55 ± 0.091 | -1.1 ± 0.11
47 | CUCUAGCAAUAUUACGACGG | -2.32 ± 0.18 | -1.98 ± 0.29
48 | CUCUAGCAAUAUUACGAGAC |  | -1.17 ± 0.26
49 | CUCUAGCAAUAUUACGAGCG | -2.79 ± 0.14 | -2.73 ± 0.16
50 | CUCUAGCAAUAUUACGAGUC |  | -2.8 ± 0.3
51 | CUCUAGCAAUAUUACGAUAA | -3.29 ± 0.27 | -2 ± 0.24
52 | CUCUAGCAAUAUUACGCACA | -3.24 ± 0.4 | -3.82 ± 0.46

Row | Sequence | self-splicing fitness (ln) (30 °C) | self-splicing fitness (ln) (37 °C)
53 | CUCUAGCAAUAUUACGCUGA | -1.6 ± 0.21 | -2.31 ± 0.27
54 | CUCUAGCAAUAUUACGCUGC | -3.58 ± 0.44 | 
55 | CUCUAGCAAUAUUACGGAAG | -2.95 ± 0.13 | -1.34 ± 0.12
56 | CUCUAGCAAUAUUACGGCGU | -3.56 ± 0.27 | -2.83 ± 0.24
57 | CUCUAGCAAUAUUACGGUAU | -2.7 ± 0.16 | -2.77 ± 0.23
58 | CUCUAGCAAUAUUACGGUCU | -3.26 ± 0.2 | -3.06 ± 0.23
59 | CUCUAGCAAUAUUACGGUUU | -3.04 ± 0.41 | -1.82 ± 0.29
60 | CUCUAGCAAUAUUACGUCGC |  | -3.28 ± 0.47
61 | CUCUAGCAAUAUUACGUGCC | -3.23 ± 0.28 | -3.62 ± 0.39
62 | CUCUAGCAAUAUUACGUGCU | -2.48 ± 0.3 | -2.38 ± 0.27
63 | CUCUAGCAAUAUUACGUGGU | -5.48 ± 0.41 | -3.5 ± 0.22
64 | CUCUAGCAAUAUUACGUUCA | -3.66 ± 0.34 | -3.02 ± 0.27
65 | CUGAAGCAAUAUUACGAAAC | -3.39 ± 0.25 | 
66 | CUGAAGCAAUAUUACGACUC | -1.82 ± 0.22 | 
67 | CUGAAGCAAUAUUACGACUG | 0.187 ± 0.08 | 0.678 ± 0.11
68 | CUGAAGCAAUAUUACGAGAG | -1.32 ± 0.088 | -1.18 ± 0.11
69 | CUGAAGCAAUAUUACGAGGG | -2.03 ± 0.11 | -1.25 ± 0.14
70 | CUGAAGCAAUAUUACGAUGA | -3.52 ± 0.21 | -1.92 ± 0.16
71 | CUGAAGCAAUAUUACGAUGU | -3.12 ± 0.13 | -1.21 ± 0.12
72 | CUGAAGCAAUAUUACGCAGG | -1.8 ± 0.082 | -1.77 ± 0.12
73 | CUGAAGCAAUAUUACGCGAC | -1.46 ± 0.086 | -1.14 ± 0.1
74 | CUGAAGCAAUAUUACGCGGC | -0.11 ± 0.081 | 0.053 ± 0.11
75 | CUGAAGCAAUAUUACGCUAC | -3.7 ± 0.47 | 
76 | CUGAAGCAAUAUUACGGAUG | -2.18 ± 0.1 | -1.14 ± 0.1
77 | CUGAAGCAAUAUUACGGCCC | -1.58 ± 0.48 | 
78 | CUGAAGCAAUAUUACGGGAU | -1.65 ± 0.076 | -1.07 ± 0.11

Row | Sequence | self-splicing fitness (ln) (30 °C) | self-splicing fitness (ln) (37 °C)
79 | CUGAAGCAAUAUUACGGGGC | -3.24 ± 0.21 | -2.56 ± 0.27
80 | CUGAAGCAAUAUUACGUAGU | -4.3 ± 0.23 | -3.22 ± 0.26
81 | CUGAAGCAAUAUUACGUCGG | -3.11 ± 0.18 | -1.14 ± 0.16
82 | CUGAAGCAAUAUUACGUCUU | -3.7 ± 0.24 | -2.64 ± 0.25
83 | CUGAAGCAAUAUUACGUUCU | -3.39 ± 0.22 | -3.45 ± 0.37
84 | CUGAAGCAAUAUUACGUUGG | -2.84 ± 0.13 | -1.58 ± 0.13
85 | CUGCAGCAAUAUUACGAGAA | -2.56 ± 0.35 | -2.64 ± 0.33
86 | CUGCAGCAAUAUUACGAGAU | -3.69 ± 0.34 | 
87 | CUGCAGCAAUAUUACGAUGA | -3.75 ± 0.22 | -2.45 ± 0.23
88 | CUGCAGCAAUAUUACGAUGU | -3.96 ± 0.23 | -2.71 ± 0.3
89 | CUGCAGCAAUAUUACGAUUG | -0.725 ± 0.06 | -0.488 ± 0.074
90 | CUGCAGCAAUAUUACGCAUA | -2.84 ± 0.2 | -2.73 ± 0.17
91 | CUGCAGCAAUAUUACGCCAG | -2.56 ± 0.42 | -1.07 ± 0.21
92 | CUGCAGCAAUAUUACGCCAU | -3.9 ± 0.2 | -3.42 ± 0.17
93 | CUGCAGCAAUAUUACGCGCC | -3.33 ± 0.33 | -2.17 ± 0.24
94 | CUGCAGCAAUAUUACGCUCU | -3.52 ± 0.41 | -2.27 ± 0.25
95 | CUGCAGCAAUAUUACGCUUA | -3.04 ± 0.29 | -3.98 ± 0.46
96 | CUGCAGCAAUAUUACGGAAU | -5.11 ± 0.45 | -2.74 ± 0.32
97 | CUGCAGCAAUAUUACGGAGA | -3.35 ± 0.22 | -2.83 ± 0.34
98 | CUGCAGCAAUAUUACGGAGC | -3.93 ± 0.47 | -2.61 ± 0.31
99 | CUGCAGCAAUAUUACGGCCC | -2.85 ± 0.36 | 
100 | CUGCAGCAAUAUUACGGCGA | -0.954 ± 0.14 | -0.847 ± 0.13
101 | CUGCAGCAAUAUUACGGCGG | -3.57 ± 0.25 | -2.23 ± 0.28
102 | CUGCAGCAAUAUUACGGGAC | -2.53 ± 0.22 | -0.85 ± 0.17
